Like-named read-outs stand apart in the source and are kept apart here. Starred links: 1 amine or outer side, 2 acyl side, 3 side chain; linkers in the order of their positions; H or OH if unused. Positions of bridges follow the written chain, without caps; N, C: chain ends. Non-standard residues stand in square brackets, D forms with d. No end group written: not given here. Ser(Bzl) = O-benzyl-serine, O=C([C@H](COCc1ccccc1)N[*:1])[*:2]; dPhe(4-Cl) = N[C@H](Cc1ccc(Cl)cc1)C(=O)O; 1Nal = N[C@@H](Cc1cccc2ccccc12)C(=O)O; 2Nal = N[C@@H](Cc1ccc2ccccc2c1)C(=O)O; d2Nal = N[C@H](Cc1ccc2ccccc2c1)C(=O)O; Nle = CCCC[C@H](N)C(=O)O; Ahp = NCCCCCCC(=O)O
Assays:
[1] = molecular target: T1, human melanocortin 4 receptor (human, UniProt P32245 1-332); test: cell-based or functional assay
[2] = molecular target: T2, human melanocortin 3 receptor (human, UniProt P41968 1-323); test: radioligand competition, [I125]-NDP-α-MSH, hMC3-R membranes
T2 construct: whole, on cells; also called hMC3-R; MC3-R

[3] = molecular target: T1, human melanocortin 4 receptor; test: cell-based or functional assay; remark: listed apart in the source
[4] = molecular target: T3, human MC1-R (human, UniProt Q01726 1-317); test: radioligand competition, NDP-α-MSH, human MC1-R, normal system
T3 construct: whole, on cells; Used in separate experiments for Ki with NDP-α-MSH; the source of the membranes is not described; also called hMC1-R

[5] = molecular target: T1, human melanocortin 4 receptor; test: radioligand competition, [I125]-NDP-α-MSH, hMC4-R membranes
[6] = molecular target: T4, human melanocortin 5 receptor (human, UniProt P33032 1-325); test: radioligand competition, [I125]-NDP-α-MSH, hMC5-R membranes
T4 construct: whole, on cells; also called hMC5-R; MC5-R

[7] = molecular target: T5, MC1-R of B-16 mouse melanoma cells (mouse, UniProt Q01727 1-315); test: radioligand competition, [I125]-NDP-α-MSH, B-16 membranes
T5 construct: whole, on cells; also called B16-F10 (MC1-R)

[8] = molecular target: T1, human melanocortin 4 receptor; test: cell-based or functional assay; remark: listed apart in the source
[9] = molecular target: T1, human melanocortin 4 receptor; test: radioligand competition, [I125]-NDP-α-MSH, hMC4-R membranes; remark: listed apart in the source
[10] = molecular target: T4, human melanocortin 5 receptor; test: radioligand competition, [I125]-NDP-α-MSH, hMC5-R membranes; remark: listed apart in the source
[11] = molecular target: T2, human melanocortin 3 receptor; test: radioligand competition, [I125]-NDP-α-MSH, hMC3-R membranes; remark: listed apart in the source
[12] = molecular target: T5, MC1-R of B-16 mouse melanoma cells; test: radioligand competition, [I125]-NDP-α-MSH, B-16 membranes; remark: listed apart in the source
[13] = molecular target: T1, human melanocortin 4 receptor; test: radioligand competition, [I125]-NDP-α-MSH, hMC4-R membranes; remark: listed apart in the source
[14] = molecular target: T5, MC1-R of B-16 mouse melanoma cells; test: radioligand competition, [I125]-NDP-α-MSH, B-16 membranes; remark: listed apart in the source
[15] = molecular target: T4, human melanocortin 5 receptor; test: radioligand competition, [I125]-NDP-α-MSH, hMC5-R membranes; remark: listed apart in the source
[16] = molecular target: T2, human melanocortin 3 receptor; test: radioligand competition, [I125]-NDP-α-MSH, hMC3-R membranes; remark: listed apart in the source
[17] = molecular target: T1, human melanocortin 4 receptor; test: cell-based or functional assay; remark: listed apart in the source
[18] = molecular target: T1, human melanocortin 4 receptor; test: cell-based or functional assay; remark: listed apart in the source
[19] = molecular target: T5, MC1-R of B-16 mouse melanoma cells; test: radioligand competition, [I125]-NDP-α-MSH, B-16 membranes; remark: listed apart in the source
[20] = molecular target: T1, human melanocortin 4 receptor; test: radioligand competition, [I125]-NDP-α-MSH, hMC4-R membranes; remark: listed apart in the source
[21] = molecular target: T4, human melanocortin 5 receptor; test: radioligand competition, [I125]-NDP-α-MSH, hMC5-R membranes; remark: listed apart in the source
[22] = molecular target: T2, human melanocortin 3 receptor; test: radioligand competition, [I125]-NDP-α-MSH, hMC3-R membranes; remark: listed apart in the source
[23] = molecular target: T1, human melanocortin 4 receptor; test: cell-based or functional assay; remark: listed apart in the source
[24] = molecular target: T1, human melanocortin 4 receptor; test: radioligand competition, [I125]-NDP-α-MSH, hMC4-R membranes; remark: listed apart in the source
[25] = molecular target: T5, MC1-R of B-16 mouse melanoma cells; test: radioligand competition, [I125]-NDP-α-MSH, B-16 membranes; remark: listed apart in the source
[26] = molecular target: T2, human melanocortin 3 receptor; test: radioligand competition, [I125]-NDP-α-MSH, hMC3-R membranes; remark: listed apart in the source
[27] = molecular target: T1, human melanocortin 4 receptor; test: cell-based or functional assay; remark: listed apart in the source
[28] = molecular target: T1, human melanocortin 4 receptor; test: radioligand competition, [I125]-NDP-α-MSH, hMC4-R membranes; remark: listed apart in the source
[29] = molecular target: T5, MC1-R of B-16 mouse melanoma cells; test: radioligand competition, [I125]-NDP-α-MSH, B-16 membranes; remark: listed apart in the source
[30] = molecular target: T4, human melanocortin 5 receptor; test: radioligand competition, [I125]-NDP-α-MSH, hMC5-R membranes; remark: listed apart in the source
[31] = molecular target: T2, human melanocortin 3 receptor; test: radioligand competition, [I125]-NDP-α-MSH, hMC3-R membranes; remark: listed apart in the source
[32] = molecular target: T2, human melanocortin 3 receptor; test: as above; remark: listed apart in the source
[33] = molecular target: T5, MC1-R of B-16 mouse melanoma cells; test: radioligand competition, [I125]-NDP-α-MSH, B-16 membranes; remark: listed apart in the source
[34] = molecular target: T1, human melanocortin 4 receptor; test: radioligand competition, [I125]-NDP-α-MSH, hMC4-R membranes; remark: listed apart in the source
[35] = molecular target: T4, human melanocortin 5 receptor; test: radioligand competition, [I125]-NDP-α-MSH, hMC5-R membranes; remark: listed apart in the source
[36] = molecular target: T4, human melanocortin 5 receptor; test: as above; remark: listed apart in the source
[37] = molecular target: T1, human melanocortin 4 receptor; test: cell-based or functional assay; remark: listed apart in the source
[38] = molecular target: T2, human melanocortin 3 receptor; test: radioligand competition, [I125]-NDP-α-MSH, hMC3-R membranes; remark: listed apart in the source
[39] = molecular target: T5, MC1-R of B-16 mouse melanoma cells; test: radioligand competition, [I125]-NDP-α-MSH, B-16 membranes; remark: listed apart in the source
[40] = molecular target: T1, human melanocortin 4 receptor; test: radioligand competition, [I125]-NDP-α-MSH, hMC4-R membranes; remark: listed apart in the source

T3 sequence (Q01726 whole entry): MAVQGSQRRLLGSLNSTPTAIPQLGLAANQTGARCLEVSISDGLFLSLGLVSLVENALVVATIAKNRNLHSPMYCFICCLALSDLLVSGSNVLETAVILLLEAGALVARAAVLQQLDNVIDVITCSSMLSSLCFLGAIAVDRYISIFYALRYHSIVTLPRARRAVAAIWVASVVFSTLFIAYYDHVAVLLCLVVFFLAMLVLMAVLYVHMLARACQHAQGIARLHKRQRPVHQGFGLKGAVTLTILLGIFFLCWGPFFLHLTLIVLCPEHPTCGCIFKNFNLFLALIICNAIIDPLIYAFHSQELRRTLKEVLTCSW
T4 sequence (P33032 whole entry): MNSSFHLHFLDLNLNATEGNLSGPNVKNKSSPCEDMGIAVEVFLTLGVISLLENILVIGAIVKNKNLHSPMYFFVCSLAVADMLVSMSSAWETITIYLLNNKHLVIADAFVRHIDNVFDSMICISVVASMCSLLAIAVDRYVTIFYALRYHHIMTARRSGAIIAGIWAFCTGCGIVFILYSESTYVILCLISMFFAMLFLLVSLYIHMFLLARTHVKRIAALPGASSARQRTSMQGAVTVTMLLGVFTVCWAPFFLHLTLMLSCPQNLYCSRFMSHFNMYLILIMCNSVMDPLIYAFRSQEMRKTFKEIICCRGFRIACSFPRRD
T2 sequence (P41968 whole entry): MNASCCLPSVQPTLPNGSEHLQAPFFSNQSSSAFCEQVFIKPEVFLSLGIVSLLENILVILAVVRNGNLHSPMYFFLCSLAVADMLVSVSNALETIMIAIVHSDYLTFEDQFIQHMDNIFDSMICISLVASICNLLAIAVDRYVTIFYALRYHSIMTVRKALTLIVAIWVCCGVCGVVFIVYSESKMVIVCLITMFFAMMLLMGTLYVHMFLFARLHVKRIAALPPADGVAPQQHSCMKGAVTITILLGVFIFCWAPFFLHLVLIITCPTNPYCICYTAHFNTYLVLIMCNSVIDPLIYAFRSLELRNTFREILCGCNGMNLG
T1 sequence (P32245 whole entry): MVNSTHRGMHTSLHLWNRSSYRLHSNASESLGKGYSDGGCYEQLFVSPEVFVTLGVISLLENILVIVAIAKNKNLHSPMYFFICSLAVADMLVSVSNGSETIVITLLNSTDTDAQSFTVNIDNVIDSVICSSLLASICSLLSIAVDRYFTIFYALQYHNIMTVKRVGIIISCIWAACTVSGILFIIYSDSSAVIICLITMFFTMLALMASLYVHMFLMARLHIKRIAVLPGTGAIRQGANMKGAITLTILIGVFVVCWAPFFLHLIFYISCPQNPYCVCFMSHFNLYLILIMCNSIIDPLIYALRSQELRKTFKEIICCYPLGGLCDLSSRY
T5 sequence (Q01727 whole entry): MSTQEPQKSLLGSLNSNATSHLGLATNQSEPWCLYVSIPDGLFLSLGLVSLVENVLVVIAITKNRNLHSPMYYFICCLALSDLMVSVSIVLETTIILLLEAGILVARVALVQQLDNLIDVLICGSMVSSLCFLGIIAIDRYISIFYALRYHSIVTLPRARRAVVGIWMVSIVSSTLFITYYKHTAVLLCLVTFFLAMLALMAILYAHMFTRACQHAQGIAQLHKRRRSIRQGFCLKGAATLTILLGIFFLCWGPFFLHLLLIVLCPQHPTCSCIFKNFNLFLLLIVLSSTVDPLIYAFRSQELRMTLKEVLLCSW

Binder: Ac-[Nle]DW[dF]R[1Nal]K-NMe2 (lactam 2-7, also called Compound No. 36) [Ac-Nle-cyclo(-Asp-Trp-D-Phe-Arg-Nal 1-Lys)-N(CH3)2]
- EC50 (nM), normal system (cAMP) [1]: 272 nM
- intrinsic activity, normal system (cAMP) [1]: 0.8
- Ki [2]: 231 nM
- EC50 (nM) (cAMP), High Receptor Density System [3]: 4 nM
- Ki [4]: 39 nM
- Ki [5]: 38 nM
- Ki [6]: 31 nM
- Ki [7]: 12 nM

B1: Ac-Nle-cyclo(-Asp-His-D-Phe-Arg-Nal 1-Lys)-N(CH3)2 (peptide)
peptide: XDHFRXK
modifications: N-terminal acetyl; Nle at 1 (X); D-Phe at 4; Nal 1 at 6 (X); cyclo(Asp 2 to Lys 7); C-terminal dimethylamide -N(CH3)2
notes: also called Compound No. 37
- EC50 (nM) (cAMP), High Receptor Density System [8]: 0.6 nM
- EC50 (nM) (cAMP), Low Receptor Density System [8]: 2.1 nM
- EC50 (nM), normal system (cAMP) [1]: 44 nM
- intrinsic activity, normal system (cAMP) [1]: 0.7
- Ki [9]: 5 nM
- Ki [10]: 50 nM
- Ki [4]: 0.08 nM
- Ki [11]: 111 nM
- Ki [12]: 0.39 nM

B2: Ac-Nle-cyclo(-Asp-His-D-Phe-Arg-Nal 1-Lys)-NH-CH2-CH3 (peptide)
peptide: XDHFRXK
modifications: N-terminal acetyl; Nle at 1 (X); D-Phe at 4; Nal 1 at 6 (X); cyclo(Asp 2 to Lys 7); C-terminal ethylamide -NH-CH2-CH3
notes: also called Compound No. 39
- EC50 (nM), normal system (cAMP) [1]: 0.2 nM
- intrinsic activity, normal system (cAMP) [1]: 0.6
- Ki [13]: 2 nM
- Ki [14]: 0.07 nM
- Ki [15]: 63 nM
- Ki [16]: 28 nM
- Ki [4]: 0.04 nM
- EC50 (nM) (cAMP), High Receptor Density System [17]: 1.1 nM
- EC50 (nM) (cAMP), Low Receptor Density System [17]: 10 nM

B3: NH2-(CH2)6-C(=O)-Ser(Bzl)-(D)Phe(4-Cl)-Arg-Trp-NH2 (peptide)
peptide: [Ahp][Ser(Bzl)][dPhe(4-Cl)]RW-NH2
modifications: N-terminus assumed
SMILES: N=C(N)NCCC[C@H](NC(=O)[C@@H](Cc1ccc(Cl)cc1)NC(=O)[C@H](COCc1ccccc1)NC(=O)CCCCCCN)C(=O)N[C@@H](Cc1c[nH]c2ccccc12)C(N)=O
notes: also called Compound No. 1
- EC50 (nM) at MC4-R in a normal system (cAMP) [1]: 296 nM
- intrinsic activity, normal system (cAMP) [1]: 0.32
- EC50 (nM) (cAMP), High Receptor Density System [18]: 21 nM
- Ki [19]: 351 nM
- Ki [20]: 3 nM
- Ki [21]: 208 nM
- Ki [22]: 27 nM

Binder: Ac-DH[dF]RWK-NHEt (lactam 1-6, also called Compound No. 40) [Ac-cyclo(-Asp-His-D-Phe-Arg-Trp-Lys)-NH-CH2-CH3]
- EC50 (nM), normal system (cAMP) [1]: 3 nM
- intrinsic activity, normal system (cAMP) [1]: 0.6
- Ki [4]: 0.52 nM
- EC50 (nM) (cAMP), Low Receptor Density System [23]: 3.1 nM
- Ki [24]: 6 nM
- Ki [25]: 5 nM
- Ki [26]: 84 nM

B4: Ac-Nle-cyclo(-Asp-Trp-D-Phe-Arg-Nal 1-Lys)-NH-CH2-CH3 (peptide)
peptide: Ac-[Nle]DW[dF]R[1Nal]K-NHEt
modifications: lactam 2-7
SMILES: CCCC[C@H](NC(C)=O)C(=O)N[C@H]1CC(=O)NCCCC[C@@H](C(=O)NCC)NC(=O)[C@H](Cc2cccc3ccccc23)NC(=O)[C@H](CCCNC(=N)N)NC(=O)[C@@H](Cc2ccccc2)NC(=O)[C@H](Cc2c[nH]c3ccccc23)NC1=O
notes: also called Compound No. 38
- EC50 (nM), normal system (cAMP) [1]: 120 nM
- intrinsic activity, normal system (cAMP) [1]: 0.6
- EC50 (nM) (cAMP), High Receptor Density System [27]: 10 nM
- Ki [28]: 9 nM
- Ki [29]: 4.2 nM
- Ki [4]: 30 nM
- Ki [30]: 47 nM
- Ki [31]: 77 nM

Binder: Ac-DW[d2Nal]R[2Nal]K-NHMe (lactam 1-6, also called Compound No. 35) [Ac-cyclo(Asp-Trp-D-Nal 2-Arg-Nal 2-Lys)-NH-CH3]
- Ki [32]: 3 nM
- Ki [33]: 643 nM
- Ki [34]: 0.06 nM
- Ki [35]: 6 nM

B5: NH2-(CH2)6-C(=O)-Ser(Bzl)-D-Phe(4-Cl)-Arg-Trp-Asp-NH2 (peptide)
peptide: [Ahp][Ser(Bzl)][dPhe(4-Cl)]RWD-NH2
modifications: N-terminus assumed
SMILES: N=C(N)NCCC[C@H](NC(=O)[C@@H](Cc1ccc(Cl)cc1)NC(=O)[C@H](COCc1ccccc1)NC(=O)CCCCCCN)C(=O)N[C@@H](Cc1c[nH]c2ccccc12)C(=O)N[C@@H](CC(=O)O)C(N)=O
notes: also called Compound No. 13
- Ki [36]: 596 nM
- EC50 (nM), normal system (cAMP) [1]: 568 nM
- intrinsic activity, normal system (cAMP) [1]: 0.5
- EC50 (nM) (cAMP), High Receptor Density System [37]: 34 nM
- Ki [38]: 180 nM
- Ki [39]: 760 nM
- Ki [40]: 9 nM

Reference: patent publication US20090081197A1 (PALATIN TECHNOLOGIES, published 2009)
